Assay results as given in US20240317847A1 (Bayer, published 2024).
Substitutions are numbered along the chain they refer to.

T1: human IL-11 (human, UniProt P20809 22-199)
T1 construct: Invigate recombinant protein; biotinylated when immobilized in the Di-complex ELISA; also called hIL11; hIL-11
T1 sequence: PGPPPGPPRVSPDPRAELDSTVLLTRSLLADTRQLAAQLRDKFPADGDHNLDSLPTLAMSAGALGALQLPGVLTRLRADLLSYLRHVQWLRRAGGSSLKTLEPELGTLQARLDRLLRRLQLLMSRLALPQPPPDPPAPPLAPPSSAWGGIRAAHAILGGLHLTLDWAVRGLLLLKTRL

T2: cynomolgus IL-11 (cynomolgus, UniProt P20808 22-199)
T2 construct: Invigate recombinant protein; also called cIL11; Macaca IL-11
T2 sequence: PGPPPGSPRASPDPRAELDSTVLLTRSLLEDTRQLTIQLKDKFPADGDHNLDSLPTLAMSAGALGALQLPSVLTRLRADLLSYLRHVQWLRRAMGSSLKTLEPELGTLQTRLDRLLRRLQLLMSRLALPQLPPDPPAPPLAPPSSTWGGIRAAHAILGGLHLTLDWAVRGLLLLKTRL

T3: rat IL-11 (rat, UniProt Q99MF5 22-199)
T3 construct: Invigate recombinant protein; also called rIL11
T3 sequence: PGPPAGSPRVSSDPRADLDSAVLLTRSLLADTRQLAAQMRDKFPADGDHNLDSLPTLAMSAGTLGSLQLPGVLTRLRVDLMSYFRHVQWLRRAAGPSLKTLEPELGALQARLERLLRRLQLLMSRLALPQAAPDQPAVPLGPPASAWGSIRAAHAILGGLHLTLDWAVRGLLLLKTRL

T4: murine IL-11 (mouse, UniProt P47873 22-199)
T4 construct: Invigate recombinant protein; biotinylated when immobilized in the Di-complex ELISA; also called mIL11; mIL-11
T4 sequence: T3 sequence with N50S, F84L, A94G, A137V, V138I

B1: TPP-29528 (antibody, mouse IgG1)
heavy: EVQLLESGGGLVQPGGSLRLSCAASGFTFSSYGMHWVRQAPGKGLEWVAVISYDGSYKYYADSVKGRFTISRDNSKNTLYLQMNSLRAEDTAVYYCAAGVPDYWGQGTLVTVSSAKTTPPSVYPLAPGSAAQTNSMVTLGCLVKGYFPEPVTVTWNSGSLSSGVHTFPAVLQSDLYTLSSSVTVPSSTWPSETVTCNVAHPASSTKVDKKIVPRDCGCKPCICTVPEVSSVFIFPPKPKDVLTITLTPKVTCVVVDISKDDPEVQFSWFVDDVEVHTAQTQPREEQFNSTFRSVSELPIMHQDWLNGKEFKCRVNSAAFPAPIEKTISKTKGRPKAPQVYTIPPPKEQMAKDKVSLTCMITDFFPEDITVEWQWNGQPAENYKNTQPIMDTDGSYFVYSKLNVQKSNWEAGNTFTCSVLHEGLHNHHTEKSLSHSPGK
light: QSVLTQPPSASGTPGQRVTISCSGSSSNIGSDYDVHWYQQLPGTAPKLLIYSNEERPSGVPDRFSGSKSGTSASLAISGLRSEDEADYYCSAWDSSLSGPVFGGGTKLTVLGQPKSSPSVTLFPPSSEELETNKATLVCTITDFYPGVVTVDWKVDGTPVTQGMETTQPSKQSNNKYMASSYLTLTARAWERHSSYSCQVTHEGHTVEKSLSRADCS
notes: mIgG1, Lambda
B2: TPP-29697 (bispecific antibody, IgG1)
chain 1: QVQLVESGGGVVQPGRSLRLSCAASGFTFSHYDMHWVRQAPGKGLEWVAVISYHGSVKFYADSVKGRFTISRDNSKNTLYLQMNSLRAEDTAVYYCARTPGFHFDYWGQGTLVTVSSGGGGSGGGGSGGGGSQSVLTQPPSASGTPGQRVTISCSGSSSNIGSNYVSWYQQLPGTAPKLLIYYDDLRPSGVPDRFSGSKSGTSASLAISGLRSEDEADYYCSAWDDSLSGVVFGGGTKLTVLGGGGSGGGGSGGGGSGVECPPCPAPPVAGPSVFLFPPKPKDTLMISRTPEVTCVVVGVSHEDPEVKFNWYVDGVEVHNAKTKPREEQYNSTYRVVSVLTVLHQDWLNGKEYKCKVSNKQLPSPIEKTISKAKGQPREPQVYTLPPCRDELTKNQVSLWCLVKGFYPSDIAVEWESNGQPENNYKTTPPVLDSDGSFFLYSKLTVDKSRWQQGNVFSCSVMHEALHNHYTQKSLSLSPGK
chain 2: EVQLLESGGGLVQPGGSLRLSCAASGFTFSSYGMHWVRQAPGKGLEWVAVISYDGSYKYYADSVKGRFTISRDNSKNTLYLQMNSLRAEDTAVYYCAAGVPDYWGQGTLVTVSSGGGGSGGGGSGGGGSQSVLTQPPSASGTPGQRVTISCSGSSSNIGSDYDVHWYQQLPGTAPKLLIYSNEERPSGVPDRFSGSKSGTSASLAISGLRSEDEADYYCSAWDSSLSGPVFGGGTKLTVLGGGGSGGGGSGGGGSGVECPPCPAPPVAGPSVFLFPPKPKDTLMISRTPEVTCVVVGVSHEDPEVKFNWYVDGVEVHNAKTKPREEQYNSTYRVVSVLTVLHQDWLNGKEYKCKVSNKQLPSPIEKTISKAKGQPREPQVCTLPPSRDELTKNQVSLSCAVKGFYPSDIAVEWESNGQPENNYKTTPPVLDSDGSFFLVSKLTVDKSRWQQGNVFSCSVMHEALHNHYTQKSLSLSPGK
notes: scFv-kih-hIgG1 with Fc-silencing mutations; bispecific comprising CDRs of TPP-29528 and TPP-29519
B3: TPP-29519 (antibody, mouse IgG1)
heavy: QVQLVESGGGVVQPGRSLRLSCAASGFTFSHYDMHWVRQAPGKGLEWVAVISYHGSVKFYADSVKGRFTISRDNSKNTLYLQMNSLRAEDTAVYYCARTPGFHFDYWGQGTLVTVSSAKTTPPSVYPLAPGSAAQTNSMVTLGCLVKGYFPEPVTVTWNSGSLSSGVHTFPAVLQSDLYTLSSSVTVPSSTWPSETVTCNVAHPASSTKVDKKIVPRDCGCKPCICTVPEVSSVFIFPPKPKDVLTITLTPKVTCVVVDISKDDPEVQFSWFVDDVEVHTAQTQPREEQFNSTFRSVSELPIMHQDWLNGKEFKCRVNSAAFPAPIEKTISKTKGRPKAPQVYTIPPPKEQMAKDKVSLTCMITDFFPEDITVEWQWNGQPAENYKNTQPIMDTDGSYFVYSKLNVQKSNWEAGNTFTCSVLHEGLHNHHTEKSLSHSPGK
light: QSVLTQPPSASGTPGQRVTISCSGSSSNIGSNYVSWYQQLPGTAPKLLIYYDDLRPSGVPDRFSGSKSGTSASLAISGLRSEDEADYYCSAWDDSLSGVVFGGGTKLTVLGQPKSSPSVTLFPPSSEELETNKATLVCTITDFYPGVVTVDWKVDGTPVTQGMETTQPSKQSNNKYMASSYLTLTARAWERHSSYSCQVTHEGHTVEKSLSRADCS
notes: mIgG1, Lambda
B4: TPP-29603 (bispecific antibody, IgG1)
chain 1: QVQLVESGGGVVQPGRSLRLSCAASGFTFSHYDMHWVRQAPGKGLEWVAVISYHGSVKFYADSVKGRFTISRDNSKNTLYLQMNSLRAEDTAVYYCARTPGFHFDYWGQGTLVTVSSGGGGSGGGGSGGGGSQSVLTQPPSASGTPGQRVTISCSGSSSNIGSNYVSWYQQLPGTAPKLLIYYDDLRPSGVPDRFSGSKSGTSASLAISGLRSEDEADYYCSAWDDSLSGVVFGGGTKLTVLGGGGSGGGGSGGGGSGVECPPCPAPPVAGPSVFIFPPKPKDVLTITLTPKVTCVVVDISKDDPEVQFSWFVDDVEVHTAQTQPREEQFNSTFRSVSELPIMHQDWLNGKEFKCRVNSAAFPAPIEKTISKTKGRPKAPQVYTIPPCKEQMAKDKVSLWCMITDFFPEDITVEWQWNGQPAENYKNTQPIMDTDGSYFVYSKLNVQKSNWEAGNTFTCSVLHEGLHNHHTEKSLSHSPGK
chain 2: EVQLLESGGGLVQPGGSLRLSCAASGFTFSSYGMHWVRQAPGKGLEWVAVISYDGSYKYYADSVKGRFTISRDNSKNTLYLQMNSLRAEDTAVYYCAAGVPDYWGQGTLVTVSSGGGGSGGGGSGGGGSQSVLTQPPSASGTPGQRVTISCSGSSSNIGSDYDVHWYQQLPGTAPKLLIYSNEERPSGVPDRFSGSKSGTSASLAISGLRSEDEADYYCSAWDSSLSGPVFGGGTKLTVLGGGGSGGGGSGGGGSGVECPPCPAPPVAGPSVFIFPPKPKDVLTITLTPKVTCVVVDISKDDPEVQFSWFVDDVEVHTAQTQPREEQFNSTFRSVSELPIMHQDWLNGKEFKCRVNSAAFPAPIEKTISKTKGRPKAPQVCTIPPPKEQMAKDKVSLSCAITDFFPEDITVEWQWNGQPAENYKNTQPIMDTDGSYFVVSKLNVQKSNWEAGNTFTCSVLHEGLHNHHTEKSLSHSPGK
notes: scFv-kih-mIgG1; bispecific comprising CDRs of TPP-29528 and TPP-29519
B5: TPP-18068 (antibody, mouse IgG1)
heavy: B1 heavy with A49S
light: B1 light with S23T, S31A, D32G, E54N, S91A, S95D, S98N
notes: mIgG1, Lambda
B6: TPP-18087 (antibody, mouse IgG1, V domains shown)
VH: EVQLLESGGGLVQPGGSLRLSCAASGFTFSHYDMNWLRQAPGKGLEWVGVISYDGSNKFYADFVKGRFTISRDNSKNTLYLQMNSLRAEDTAVYYCARTPGSHFDYWGQGTLVTVSS
VL: QSVLTQPPSASGTPGQRVTISCSGSSSNIGNNAVNWYQQLPGTAPKLLIYYDDLLPSGVPDRFSGSKSGTSASLAISGLRSEDEADYYCSAWDDSLNGVVFGGGTKLTVLG
notes: mIgG1, Lambda

target: T1, human IL-11; assay: SPR (Biacore), 37 C, antibody captured via anti-Fc, IL-11 as analyte
Experimental: (§1) To assess the binding kinetics and affinity of anti-IL-11 bispecific antibodies as well as their species cross-reactivity profile, binding assays were conducted using surface plasmon resonance (SPR). […] Antibodies were captured either via anti-human Fc IgGs (“Human antibody capture kit”, Order No. BR100839, Cytiva) or via anti-mouse Fc IgGs (“Mouse antibody capture kit, Order No. BR100383, Cytiva) covalently amine coupled to a Series S CM5 sensor chip (Cytiva) depending on the isotype. The amine coupling was carried out according to the manufacturer's instructions using 1-ethyl-3-(3-dimethylaminopropyl) carbodiimide hydrochloride (EDC), N-hydroxysuccinimide (NHS) and ethanolamine HCl, pH 8.5 (“Amine Coupling Kit” BR-1000-50, Cytiva.). Human, mouse, cynomolgus or rat IL-11 was used as analyte at several dilutions within the concentration range from 0.05-200 nM. For binding assays with only one concentration 200 nM IL-11 was used. The sensor surface was regenerated with glycine pH 1.7 after each antigen injection. Obtained sensorgrams were double referenced (subtraction of reference flow cell signal and buffer injection) and were fitted to a 1:1 Langmuir binding model to derive kinetic data using the Biacore T200 Evaluation software or the Biacore Insight software.
(§2) If no value is reported, there was either no binding or very low binding and multiphasic binding behavior.

Kd [nM] | Binder
0.34 | B1
< 0.001 | B2
0.01 | B3
0.0019 | B4

target: T2, cynomolgus IL-11; assay: as above
Experimental: as §1, §2

Kd [nM] | Binder
5 | B5
0.2 | B1
< 0.001 | B2
0.61 | B3
0.0022 | B4

target: T3, rat IL-11; assay: as above
Experimental: as §1, §2

Kd [nM] | Binder
0.58 | B5
0.33 | B1
< 0.001 | B2
0.023 | B3
0.0034 | B4

target: T4, murine IL-11; assay: Tri-complex ELISA, mIL-11 + mIL-11Ra-Fc + mgp130-Fc, inhibition of complex formation

Efficacy (%) | IC50 [nM] | Binder
84.9 | 3.9 | B5
94.7 | 0.6 | B1
– | 33 | B6
81.3 | 0.14 | B3
